This note sets out measurements from article PMC4325984 (The Biochemical journal, 2015).

This test addresses rabbit muscle ADP-G-actin (rabbit, UniProt P68135 1-377). Kind of test: ITC. A general note: Isothermal titration calorimetry measures the heat released or taken up as one component is titrated into another.

B1: UNC-60B (natural protein)
chain: MASGVKVDPSCKNAYDLLHNKHQHSYIIFKIDKNDTAIVVEKVGEKNAPYAEFVEEMKKLVEDGKECRYAAVDVEVTVQRQGAEGTSTLNKVIFVQYCPDNAPVRRRMLYASSVRALKASLGLESLFQVQASEMSDLDEKSVKSDLMSNQRI
Take B1: the Kd (in general, the concentration at which binding is half-saturated) turned out to be 8.62 nM and the dH is -6720 ± 117 cal/mol.

B2: UNC-60A (natural protein)
chain: MSSGVMVDPDVQTSFQKLSEGRKEYRYIIFKIDENKVIVEAAVTQDQLGITGDDYDDSSKAAFDKFVEDVKSRTDNLTDCRYAVFDFKFTCSRVGAGTSKMDKIIFLQICPDGASIKKKMVYASSAAAIKTSLGTGKILQFQVSDESEMSHKELLNKLGEKYGDH
Take B2: the Kd amounted to 32.2 nM; the dH is -2300 ± 71.1 cal/mol; the stoichiometry N (in general, a count of units in the complex or per binding partner) is 1.
